Results from the Human Domainome abundance scans (Beltran et al. 2025).
± gives the uncertainty stated by the source.

Test: abundance fitness (aPCA) (normalised: wild type 0, dead -1); higher = more abundant; growth selection in yeast, the domain comes from the species named
Details: Homo sapiens

Substance | abundance fitness
BAG family molecular chaperone regulator 3 A13C, O95817 | -0.603 ± 0.46
BAG family molecular chaperone regulator 3 A13D, O95817 | 0.279 ± 0.07
BAG family molecular chaperone regulator 3 A13E, O95817 | -0.47 ± 0.28
BAG family molecular chaperone regulator 3 A13G, O95817 | -0.412 ± 0.094
BAG family molecular chaperone regulator 3 A13K, O95817 | 0.174 ± 0.17
BAG family molecular chaperone regulator 3 A13L, O95817 | 0.127 ± 0.13
BAG family molecular chaperone regulator 3 A13M, O95817 | -0.172 ± 0.31
BAG family molecular chaperone regulator 3 A13Q, O95817 | -0.167 ± 0.086
BAG family molecular chaperone regulator 3 A13R, O95817 | -0.316 ± 0.13
BAG family molecular chaperone regulator 3 A13S, O95817 | -0.321 ± 0.2
BAG family molecular chaperone regulator 3 A13T, O95817 | 0.169 ± 0.2
BAG family molecular chaperone regulator 3 A13V, O95817 | 0.328 ± 0.087
BAG family molecular chaperone regulator 3 A13W, O95817 | -0.774 ± 0.32
BAG family molecular chaperone regulator 3 A13Y, O95817 | -0.047 ± 0.46
BAG family molecular chaperone regulator 3 D18C, O95817 | -0.009 ± 0.15
BAG family molecular chaperone regulator 3 D18E, O95817 | -0.058 ± 0.074
BAG family molecular chaperone regulator 3 D18F, O95817 | -0.343 ± 0.23
BAG family molecular chaperone regulator 3 D18H, O95817 | -0.394 ± 0.17
BAG family molecular chaperone regulator 3 D18I, O95817 | -0.205 ± 0.27
BAG family molecular chaperone regulator 3 D18K, O95817 | 0.22 ± 0.18
BAG family molecular chaperone regulator 3 D18L, O95817 | -0.313 ± 0.12
BAG family molecular chaperone regulator 3 D18M, O95817 | -0.406 ± 0.26
BAG family molecular chaperone regulator 3 D18N, O95817 | 0.148 ± 0.068

Substance | abundance fitness
BAG family molecular chaperone regulator 3 D18P, O95817 | 0.065 ± 0.092
BAG family molecular chaperone regulator 3 D18Q, O95817 | 0.012 ± 0.19
BAG family molecular chaperone regulator 3 D18R, O95817 | -0.116 ± 0.09
BAG family molecular chaperone regulator 3 D18S, O95817 | -0.047 ± 0.13
BAG family molecular chaperone regulator 3 D18T, O95817 | 0.03 ± 0.11
BAG family molecular chaperone regulator 3 D18W, O95817 | -0.317 ± 0.16
BAG family molecular chaperone regulator 3 D18Y, O95817 | -0.641 ± 0.35
BAG family molecular chaperone regulator 3 D20A, O95817 | -0.557 ± 0.15
BAG family molecular chaperone regulator 3 D20C, O95817 | -0.2 ± 0.11
BAG family molecular chaperone regulator 3 D20E, O95817 | -0.018 ± 0.1
BAG family molecular chaperone regulator 3 D20F, O95817 | -0.09 ± 0.32
BAG family molecular chaperone regulator 3 D20G, O95817 | 0.08 ± 0.06
BAG family molecular chaperone regulator 3 D20I, O95817 | -0.558 ± 0.37
BAG family molecular chaperone regulator 3 D20K, O95817 | -0.429 ± 0.23
BAG family molecular chaperone regulator 3 D20L, O95817 | -0.495 ± 0.088
BAG family molecular chaperone regulator 3 D20M, O95817 | 0.365 ± 0.15
BAG family molecular chaperone regulator 3 D20N, O95817 | 0.044 ± 0.13
BAG family molecular chaperone regulator 3 D20P, O95817 | -0.22 ± 0.19
BAG family molecular chaperone regulator 3 D20Q, O95817 | -0.789 ± 0.33
BAG family molecular chaperone regulator 3 D20R, O95817 | -0.228 ± 0.085
BAG family molecular chaperone regulator 3 D20S, O95817 | 0.15 ± 0.087
BAG family molecular chaperone regulator 3 D20V, O95817 | -0.241 ± 0.074
BAG family molecular chaperone regulator 3 D20W, O95817 | -0.42 ± 0.15

Substance | abundance fitness
BAG family molecular chaperone regulator 3 D20Y, O95817 | -0.479 ± 0.3
BAG family molecular chaperone regulator 3 D31A, O95817 | -0.22 ± 0.12
BAG family molecular chaperone regulator 3 D31C, O95817 | -0.334 ± 0.074
BAG family molecular chaperone regulator 3 D31E, O95817 | 0.166 ± 0.077
BAG family molecular chaperone regulator 3 D31F, O95817 | -1.13 ± 0.34
BAG family molecular chaperone regulator 3 D31G, O95817 | -0.491 ± 0.084
BAG family molecular chaperone regulator 3 D31K, O95817 | -0.477 ± 0.28
BAG family molecular chaperone regulator 3 D31L, O95817 | -0.732 ± 0.1
BAG family molecular chaperone regulator 3 D31M, O95817 | -0.182 ± 0.15
BAG family molecular chaperone regulator 3 D31N, O95817 | -0.813 ± 0.26
BAG family molecular chaperone regulator 3 D31P, O95817 | -0.886 ± 0.22
BAG family molecular chaperone regulator 3 D31Q, O95817 | -0.557 ± 0.22
BAG family molecular chaperone regulator 3 D31R, O95817 | -0.473 ± 0.071
BAG family molecular chaperone regulator 3 D31S, O95817 | -0.67 ± 0.2
BAG family molecular chaperone regulator 3 D31T, O95817 | -0.56 ± 0.18
BAG family molecular chaperone regulator 3 D31V, O95817 | -0.433 ± 0.12
BAG family molecular chaperone regulator 3 D31W, O95817 | -0.33 ± 0.13
BAG family molecular chaperone regulator 3 D41A, O95817 | -0.82 ± 0.23
BAG family molecular chaperone regulator 3 D41C, O95817 | -0.641 ± 0.42
BAG family molecular chaperone regulator 3 D41E, O95817 | -0.874 ± 0.2
BAG family molecular chaperone regulator 3 D41G, O95817 | -0.621 ± 0.14
BAG family molecular chaperone regulator 3 D41H, O95817 | -0.541 ± 0.095
BAG family molecular chaperone regulator 3 D41I, O95817 | -0.622 ± 0.45

Substance | abundance fitness
BAG family molecular chaperone regulator 3 D41K, O95817 | -1.05 ± 0.41
BAG family molecular chaperone regulator 3 D41L, O95817 | -1.1 ± 0.17
BAG family molecular chaperone regulator 3 D41M, O95817 | -1 ± 0.45
BAG family molecular chaperone regulator 3 D41N, O95817 | -0.664 ± 0.12
BAG family molecular chaperone regulator 3 D41P, O95817 | -0.65 ± 0.16
BAG family molecular chaperone regulator 3 D41Q, O95817 | -0.364 ± 0.32
BAG family molecular chaperone regulator 3 D41R, O95817 | -0.59 ± 0.084
BAG family molecular chaperone regulator 3 D41S, O95817 | -0.868 ± 0.27
BAG family molecular chaperone regulator 3 D41T, O95817 | -0.612 ± 0.23
BAG family molecular chaperone regulator 3 D41V, O95817 | -0.851 ± 0.099
BAG family molecular chaperone regulator 3 D41W, O95817 | -1.16 ± 0.44
BAG family molecular chaperone regulator 3 D51A, O95817 | -0.682 ± 0.12
BAG family molecular chaperone regulator 3 D51C, O95817 | -0.48 ± 0.22
BAG family molecular chaperone regulator 3 D51F, O95817 | -0.234 ± 0.48
BAG family molecular chaperone regulator 3 D51G, O95817 | -0.62 ± 0.19
BAG family molecular chaperone regulator 3 D51H, O95817 | -0.262 ± 0.42
BAG family molecular chaperone regulator 3 D51K, O95817 | -0.037 ± 0.3
BAG family molecular chaperone regulator 3 D51L, O95817 | -0.859 ± 0.2
BAG family molecular chaperone regulator 3 D51M, O95817 | -0.658 ± 0.36
BAG family molecular chaperone regulator 3 D51Q, O95817 | -0.602 ± 0.42
BAG family molecular chaperone regulator 3 D51R, O95817 | -0.568 ± 0.17
BAG family molecular chaperone regulator 3 D51S, O95817 | -0.383 ± 0.14
